Biological target: human GABAA receptor β3 subunit (human, UniProt P28472, N-linked glycans at Asn80 and Asn149)
Assay: cryo-EM structure

human GABAA receptor β3 subunit, sequence (P28472 26-473): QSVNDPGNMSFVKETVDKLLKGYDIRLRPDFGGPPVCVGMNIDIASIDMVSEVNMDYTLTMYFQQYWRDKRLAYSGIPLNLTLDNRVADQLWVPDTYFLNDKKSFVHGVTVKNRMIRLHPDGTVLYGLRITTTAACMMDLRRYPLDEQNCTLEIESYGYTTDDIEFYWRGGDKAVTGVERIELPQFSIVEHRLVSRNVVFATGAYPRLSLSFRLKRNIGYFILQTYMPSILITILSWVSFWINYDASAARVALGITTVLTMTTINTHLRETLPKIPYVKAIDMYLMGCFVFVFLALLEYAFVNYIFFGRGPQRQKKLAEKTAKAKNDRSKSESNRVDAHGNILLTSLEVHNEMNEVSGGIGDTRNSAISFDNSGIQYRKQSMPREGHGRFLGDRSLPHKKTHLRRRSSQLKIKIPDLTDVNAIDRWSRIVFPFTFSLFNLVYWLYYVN

B1: megabody MbNb38^cHopQ (VHH)
VHH: QVQLQESGGGLVQAGGSLRVSCAASGRTFTAYIMAWFRQAPGKEREFLAAMDQGRIQYYGDSVRGRFTISRDYAKNSVDLQLDGLRPEDTAVYYCAAGAGFWGLRTASSYHYWGQGTQVTVSS
binding result: binds

From publication PMC6364807 (Nature, 2019)
